The values below come from patent US20160008427A1 (Genentech, published 2016).

Substitutions are numbered along the chain they refer to. In names and notes the source's numbering stands.

Experiment [1] addresses T1, C3b (human, UniProt P01024 23-667; P01024 749-1663).
T1 construct: also called soluble C3b; human C3b
As to the kind of experiment: competitive ELISA, column 'Mu Ic50 (nM)'; format of paragraph 183: variant in solution competes with coated huCRIg(L)-LFH for C3b. On the procedure:
(§1) huCRIg(L)-LFH was diluted to 2μg/mL in PBS, pH 7.4, and coated onto Maxisorp 384-well flat bottom plates (Nunc, Neptune, NJ) by incubating overnight (16-18 hr) at 4° C. (25 ul/well). The plates were washed 3 times in Wash Buffer (PBS, pH7.4, 0.05% Tween 20), and 50 ul/well of Block Buffer (PBS, pH 7.4, 0.5% BSA) was added to each well. The plates were allowed to block for 1-3hr; this and all subsequent incubations were performed on an orbital shaker at room temperature. During the blocking step, C3b (purified at Genentech) was diluted to 20 nM in Assay Buffer (PBS pH7.4, 0.5% BSA, 0.05% Tween-20), and the mutCRlg-huFc molecules were serially diluted in Assay Buffer, over a concentration range of 20,000—0.34 nM. The C3b and mutCRlg-huFc molecules were then mixed 1:1 and allowed to pre-incubate for 0.5-1 hr. The blocked plates were washed three times (as described above), and the C3b:mutCRlg-huFc complexes were added to the reaction plates (25 ul/well). After a 1-2 hr incubation, The ELISA plates were washed three times, (as described above) and plate-bound C3b was detected by the addition of an anti-human C3b antibody (clone 5F202, US Biological, Swampscott, Mass.; 600 ng/mL, 25 ul/well). The plates were incubated for 1-2 hr and washed as described above. HRP-conjugated anti-murine Fc IgG (Jackson ImmunoResearch, West Grove, Pa.) diluted 1:2,000 was then added (25 ul/well), and the plates were incubated for 1-2 hr. After a final wash, 25 ul/well of TMB substrate (Kirkegaard & Perry Laboratories, Gaithersburg, Md.) was added to the ELISA plates. Color development was stopped after approximately 8min by adding 25 ul/well 1.0M phosphoric acid. Absorbance at 450 nm and 650 nm was determined using a SpectraMax 250 microtiter plate reader (Molecular Devices, Sunnyvale, Calif.).
On the technique in general: In an ELISA, binding on a coated surface is turned into a signal by an enzyme label.

In experiment [2] the target is T1, C3b. The experiment is described as follows: competitive ELISA (competitive displacement of C3b); format of paragraph 183: variant in solution competes with coated huCRIg(L)-LFH for C3b. Here is the method:
as §1, with “HRP-conjugated anti-murine Fc IgG (Jackson ImmunoResearch, West Grove, Pa.) diluted 1:2,000 was then added (25 ul/well), and the plates were incubated for 1-2 hr. After a final wash, 25 ul/well of TMB substrate (Kirkegaard & Perry Laboratories, Gaithersburg, Md.) was added to the ELISA plates. Color development was stopped after approximately 8min by adding 25 ul/well 1.0M phosphoric acid.” left out

T1 sequence (P01024 23-667 limits assumed, chain 1 of 2): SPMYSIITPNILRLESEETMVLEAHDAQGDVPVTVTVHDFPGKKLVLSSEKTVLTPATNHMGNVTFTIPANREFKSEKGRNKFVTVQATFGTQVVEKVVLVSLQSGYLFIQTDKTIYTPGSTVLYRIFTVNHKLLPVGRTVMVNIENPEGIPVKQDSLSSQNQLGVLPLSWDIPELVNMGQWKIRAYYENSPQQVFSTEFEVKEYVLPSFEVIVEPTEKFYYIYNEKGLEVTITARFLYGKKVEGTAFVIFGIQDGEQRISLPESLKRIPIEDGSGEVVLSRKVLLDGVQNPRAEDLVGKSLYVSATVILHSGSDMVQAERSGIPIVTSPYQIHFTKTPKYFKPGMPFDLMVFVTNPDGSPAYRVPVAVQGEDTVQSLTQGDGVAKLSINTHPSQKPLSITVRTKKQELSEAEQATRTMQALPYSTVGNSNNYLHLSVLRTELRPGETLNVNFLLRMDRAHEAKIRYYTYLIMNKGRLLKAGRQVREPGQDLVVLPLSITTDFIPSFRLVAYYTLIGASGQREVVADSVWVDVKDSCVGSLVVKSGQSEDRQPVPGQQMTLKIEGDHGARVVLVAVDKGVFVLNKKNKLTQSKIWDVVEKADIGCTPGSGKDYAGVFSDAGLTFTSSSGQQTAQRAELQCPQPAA
T1 sequence (P01024 749-1663 limits assumed, chain 2 of 2): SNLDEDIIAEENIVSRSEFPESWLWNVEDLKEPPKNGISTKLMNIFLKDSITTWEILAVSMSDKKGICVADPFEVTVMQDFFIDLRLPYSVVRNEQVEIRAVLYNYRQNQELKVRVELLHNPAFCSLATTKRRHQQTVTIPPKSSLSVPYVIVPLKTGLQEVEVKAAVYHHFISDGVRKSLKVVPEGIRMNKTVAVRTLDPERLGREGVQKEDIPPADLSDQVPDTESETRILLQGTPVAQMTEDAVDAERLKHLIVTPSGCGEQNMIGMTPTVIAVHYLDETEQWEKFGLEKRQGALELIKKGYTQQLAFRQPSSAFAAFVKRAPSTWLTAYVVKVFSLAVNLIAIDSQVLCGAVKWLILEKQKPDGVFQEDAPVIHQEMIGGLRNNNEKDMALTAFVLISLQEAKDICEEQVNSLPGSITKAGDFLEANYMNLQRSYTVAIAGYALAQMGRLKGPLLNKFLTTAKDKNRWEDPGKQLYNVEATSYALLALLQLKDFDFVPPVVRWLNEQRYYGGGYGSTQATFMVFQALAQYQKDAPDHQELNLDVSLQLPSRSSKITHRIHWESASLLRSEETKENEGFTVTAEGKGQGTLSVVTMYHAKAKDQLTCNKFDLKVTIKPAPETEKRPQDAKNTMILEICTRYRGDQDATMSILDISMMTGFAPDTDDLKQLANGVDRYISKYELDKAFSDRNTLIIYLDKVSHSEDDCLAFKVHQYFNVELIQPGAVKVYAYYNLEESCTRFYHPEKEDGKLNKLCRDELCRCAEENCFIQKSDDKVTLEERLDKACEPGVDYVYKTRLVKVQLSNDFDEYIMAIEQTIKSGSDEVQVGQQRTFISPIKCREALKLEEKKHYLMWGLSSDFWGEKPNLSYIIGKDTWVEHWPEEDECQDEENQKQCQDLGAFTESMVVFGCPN

B1: IRL11 (receptor)
CRIg variant: RPILEVPYSVTGPWKGDVNLPCTYDPLQGYTQVLVKWLVQRGSDPVTIFLRDSSGDHIQIAKYRGRLHVSHKVPGDVSLQLSTLEMDDRSHYTCEVTWQTPDGNQVVRDKITELRVQKHSSKLLKTKTEAPTTMTYPLKATSTVKQSWDWTTDMDGYLGETSAGPGK
notes: also called Q60I-Q64R/E8Y
On to B1, for which the IC50 (commonly the concentration at which inhibition is half-maximal) with C3b [1] came to 34 nM.

B2: L24 (receptor)
CRIg variant: B1 CRIg variant with Y8E, G42D, D44H, P45F, I60Q, R64Q
notes: also called G42D/D44H/P45F (printed G42D/D44/H/P45F)
Regarding B2, in the experiment with C3b [1], the IC50 came out at 238 nM.

B3: IRL21 (receptor)
CRIg variant: B1 CRIg variant with Y8E, G42D
notes: also called Q60I-Q64R/G42D
Regarding B3, the IC50 with C3b [1] came to 29 nM.

B4: IRL23 (receptor)
CRIg variant: B1 CRIg variant with Y8E, P45F
notes: also called Q60I-Q64R/P45F
The molecule B4 yielded a concentration for half-maximal inhibition (IC50) with C3b [1] of 31 nM.

B5: RL59 (receptor)
CRIg variant: B1 CRIg variant with Y8E, I60Q, Q105R, K110N
notes: also called Q64R/Q105R/K110N
B5 yielded a 50% inhibitory concentration (IC50) with C3b [1] of 65 nM.

B6: IRL24 (receptor)
CRIg variant: RPILEVPESVTGPWKGDVNLPCTYDPLQGYTQVLVKWLVQRDSHFVTIFLRDSSGDHIQIAKYRGRLHVSHKVPGDVSLQLSTLEMDDRSHYTCEVTWQTPDGNQVVRDKITELRVQKHSSKLLKTKTEAPTTMTYPLKATSTVKQSWDWTTDMDGYLGETSAGPGKSLP
notes: the mutation string is cut off at the cell border on the sheet; also called Q60I/Q64R/G42D/D44H/P45F
In the experiment with C3b [1], B6 returned an IC50 of 4 nM.

B7: YL59 (receptor)
CRIg variant: B6 CRIg variant with D42G, H44D, F45P, I60Q, R64Q, M86Y, Q105R, K110N
notes: also called M86Y/Q105R/K110N
In turn, B7 registered an IC50 in the experiment with C3b [1] of 18 nM.

B8: IRL55 or IRL56 (last digit not sure) (receptor)
CRIg variant: B6 CRIg variant with D42G, H44D, F45P, K110N
notes: row between IRL52 and IRL59; also called Q60I-Q64R/K110N
For the molecule B8, the concentration for half-maximal inhibition (IC50) with C3b [1] stood at 33 nM.

B9: IRL51 (receptor)
CRIg variant: B6 CRIg variant with D42G, H44D, F45P, Q105R
notes: also called Q60I-Q64R/Q105R
In the experiment with C3b [1], B9 had a concentration for half-maximal inhibition (IC50) of 24 nM.

B10: YL24 (receptor)
CRIg variant: B6 CRIg variant with I60Q, R64Q, M86Y
notes: also called M86Y/G42D/D44H/P45F
For B10, the 50% inhibitory concentration (IC50) in the experiment with C3b [1] was determined as 31 nM.

B11: IRL52 (receptor)
CRIg variant: B6 CRIg variant with D42G, H44D, F45P, Q105K
notes: also called Q60I-Q64R/Q105K
Regarding B11, in the experiment with C3b [1], the concentration for half-maximal inhibition (IC50) was 22 nM.

B12: IRL41 (receptor)
CRIg variant: B6 CRIg variant with D42G, H44D, F45P, M86Y
notes: also called RIL41; RIL 41
Turning to B12, the “IC50 (read off the curve)” value with C3b [2] was approximately 10 nM. The molecule also returned a concentration for half-maximal inhibition (IC50) with C3b [1] of 10 nM.
